# FireProtDB (doi:10.1021/bi000849s)
# B1: Lysozyme C wild type, P61626 (protein)
# chain: MKALIVLGLVLLSVTVQGKVFERCELARTLKRLGMDGYRGISLANWMCLAKWESGYNTRATNYNAGDRSTDYGIFQINSRYWCNDGKTPGAVNACHLSCSALLQDNIADAVACAKRVVRDPQGIRAWVAWRNRCQNRDVRQYVQGCGV
# Settings: Homo sapiens, Thermal, DSC, reversible: yes, whole UniProt chain shown
protein,measurement,setting,value
B1,Tm,"pH 2.2, glycine hydrochloride 0.05 M",57.5 °C
same,Tm,"pH 2.3, glycine hydrochloride 0.05 M, KCl 0.2 M",56.2 °C
same,Tm,"pH 4, sodium acetate 0.02 M",80.1 °C
same,Tm,"pH 4.5, sodium acetate 0.02 M, KCl 0.2 M",77.7 °C
